Where two headings read alike, the source gives them in different places. *1 amine or outer side, *2 acyl side, *3 side chain or, on linkers, in order; H or OH if unused. Where no end group is shown, it is not given here. Side-chain parts run from the residue outwards. [ ]: non-standard residue; d: D form. The star is where a group is joined. γGlu = O=C(O)[C@H](CCC(=O)[*:2])N[*:1]; Palmitoyl = CCCCCCCCCCCCCCCC(=O)*; Aib = CC(C)(N)C(=O)O

The source of these data is patent US20140206609A1 (Sanofi, published 2014).

What all share (test): cell-based or functional assay
In experiment [1] the target is T1, human GIP receptor (human, UniProt P48546 22-466).
T1 sequence (looked up): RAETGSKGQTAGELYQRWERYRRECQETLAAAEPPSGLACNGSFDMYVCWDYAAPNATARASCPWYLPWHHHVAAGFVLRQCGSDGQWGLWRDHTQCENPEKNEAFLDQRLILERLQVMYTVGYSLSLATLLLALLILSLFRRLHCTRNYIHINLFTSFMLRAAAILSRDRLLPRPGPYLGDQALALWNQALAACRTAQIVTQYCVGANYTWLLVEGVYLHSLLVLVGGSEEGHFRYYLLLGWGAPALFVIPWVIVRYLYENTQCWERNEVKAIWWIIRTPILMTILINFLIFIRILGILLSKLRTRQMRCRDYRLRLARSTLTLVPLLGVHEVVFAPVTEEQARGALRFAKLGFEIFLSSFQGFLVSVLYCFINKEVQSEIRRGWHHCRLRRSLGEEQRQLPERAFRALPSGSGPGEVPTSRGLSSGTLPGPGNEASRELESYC

For experiment [2], the target named is T2, human GLP-1 receptor (human, UniProt P43220 24-463).
Target sequence in this assay (P43220 24-463): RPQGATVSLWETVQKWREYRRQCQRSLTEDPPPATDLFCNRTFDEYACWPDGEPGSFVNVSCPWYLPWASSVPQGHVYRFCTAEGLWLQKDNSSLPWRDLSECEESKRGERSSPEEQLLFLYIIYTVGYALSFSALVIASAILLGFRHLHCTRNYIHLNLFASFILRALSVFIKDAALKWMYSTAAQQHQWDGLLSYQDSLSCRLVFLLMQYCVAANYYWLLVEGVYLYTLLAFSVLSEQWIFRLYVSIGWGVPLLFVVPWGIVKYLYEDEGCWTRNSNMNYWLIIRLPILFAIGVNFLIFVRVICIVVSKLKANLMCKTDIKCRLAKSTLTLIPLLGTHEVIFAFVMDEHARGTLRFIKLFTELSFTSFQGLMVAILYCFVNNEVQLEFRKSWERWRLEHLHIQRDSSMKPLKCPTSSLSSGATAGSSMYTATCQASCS
Experiment [3] deals with T3, human GIP receptor (human) (UniProt P48546).
T3 sequence (looked up): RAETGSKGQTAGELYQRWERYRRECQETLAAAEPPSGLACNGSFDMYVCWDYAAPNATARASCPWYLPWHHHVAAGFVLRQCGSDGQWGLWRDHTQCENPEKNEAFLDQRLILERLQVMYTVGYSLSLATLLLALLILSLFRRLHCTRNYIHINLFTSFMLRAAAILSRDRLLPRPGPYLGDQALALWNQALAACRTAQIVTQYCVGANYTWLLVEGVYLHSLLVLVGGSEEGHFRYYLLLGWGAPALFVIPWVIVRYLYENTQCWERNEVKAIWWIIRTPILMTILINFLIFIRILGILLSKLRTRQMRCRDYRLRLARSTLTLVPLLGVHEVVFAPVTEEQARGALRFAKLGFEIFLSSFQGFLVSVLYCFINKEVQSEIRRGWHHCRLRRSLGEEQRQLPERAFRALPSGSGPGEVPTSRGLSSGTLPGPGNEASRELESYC

The target of experiment [4] is human GLP-1 receptor (human) (UniProt P43220).
human GLP-1 receptor (human), sequence (P43220 24-463): as the sequence (P43220 24-463) above
For experiment [5], the target named is T1, human GIP receptor. This is another data set of the same source.
Experiment [6] has as its target T2, human GLP-1 receptor. The source holds these as a separate data set.
The target in experiment [7] is T1, human GIP receptor. This is another data set of the same source.
For experiment [8], the target named is T2, human GLP-1 receptor. The source holds these as a separate data set.
Another experiment has as its target human glucagon receptor (human, UniProt P47871 26-477).

human glucagon receptor, sequence (P47871 26-477): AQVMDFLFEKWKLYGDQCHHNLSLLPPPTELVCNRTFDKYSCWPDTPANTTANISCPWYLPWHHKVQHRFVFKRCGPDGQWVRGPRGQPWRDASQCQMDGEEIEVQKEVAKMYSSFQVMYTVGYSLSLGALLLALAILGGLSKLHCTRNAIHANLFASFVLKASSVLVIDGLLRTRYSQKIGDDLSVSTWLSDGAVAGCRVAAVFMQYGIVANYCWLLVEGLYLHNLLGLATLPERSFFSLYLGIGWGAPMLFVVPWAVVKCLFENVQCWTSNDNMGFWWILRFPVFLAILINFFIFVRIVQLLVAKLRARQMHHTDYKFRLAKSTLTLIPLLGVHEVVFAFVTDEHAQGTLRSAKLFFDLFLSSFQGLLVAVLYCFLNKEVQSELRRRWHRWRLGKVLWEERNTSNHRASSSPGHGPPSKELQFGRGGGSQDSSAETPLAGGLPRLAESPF

Tyr(1)Ile(12)-GLP1 (peptide) gave an EC50 hGIP R [pM] with human GIP receptor [1] of 3660 pM. Moreover, in the experiment with human GLP-1 receptor [2], the EC50 hGLP-1 R [pM] turned out to be 5 pM.

In turn, “natural GIP (glucose-dependent insulinotropic polypeptide) (from UniProt P09681 52-93) (ligand)” gave a concentration giving a half-maximal response (EC50) in [3] of 0.4 pM.

In [4], Tyr(1)Ile(12)-exendin-4 (peptide) came in with an EC50 hGLP-1 R [pM] of 1.3 pM. Moreover, in experiment [3], the EC50 hGIP R [pM] turned out to be 93.9 pM.

B1: SEQ ID NO: 9 (peptide)
peptide: Y[Aib]EGTFTSDLSIQK([γGlu-Palmitoyl])EKRAA[Aib]EFIEWLKNTGPSSGAPPPS-NH2
modifications: N-terminus assumed
SMILES: CCCCCCCCCCCCCCCC(=O)N[C@@H](CCC(=O)NCCCC[C@H](NC(=O)[C@H](CCC(N)=O)NC(=O)[C@@H](NC(=O)[C@H](CO)NC(=O)[C@H](CC(C)C)NC(=O)[C@H](CC(=O)O)NC(=O)[C@H](CO)NC(=O)[C@@H](NC(=O)[C@H](Cc1ccccc1)NC(=O)[C@@H](NC(=O)CNC(=O)[C@H](CCC(=O)O)NC(=O)C(C)(C)NC(=O)[C@@H](N)Cc1ccc(O)cc1)[C@@H](C)O)[C@@H](C)O)[C@@H](C)CC)C(=O)N[C@@H](CCC(=O)O)C(=O)N[C@@H](CCCCN)C(=O)N[C@@H](CCCNC(=N)N)C(=O)N[C@@H](C)C(=O)N[C@@H](C)C(=O)NC(C)(C)C(=O)N[C@@H](CCC(=O)O)C(=O)N[C@@H](Cc1ccccc1)C(=O)N[C@H](C(=O)N[C@@H](CCC(=O)O)C(=O)N[C@@H](Cc1c[nH]c2ccccc12)C(=O)N[C@@H](CC(C)C)C(=O)N[C@@H](CCCCN)C(=O)N[C@@H](CC(N)=O)C(=O)N[C@H](C(=O)NCC(=O)N1CCC[C@H]1C(=O)N[C@@H](CO)C(=O)N[C@@H](CO)C(=O)NCC(=O)N[C@@H](C)C(=O)N1CCC[C@H]1C(=O)N1CCC[C@H]1C(=O)N1CCC[C@H]1C(=O)N[C@@H](CO)C(N)=O)[C@@H](C)O)[C@@H](C)CC)C(=O)O
B1: the “EC50 hGIP R [pM]” value with human GIP receptor [5] and in the experiment with human GIP receptor [7] was 5.7 pM throughout. Moreover, the “EC50 hGLP-1 R [pM]” value with human GLP-1 receptor [6] and with human GLP-1 receptor [8] was 3.6 pM in each case. In the experiment with human glucagon receptor, the “EC50 hGLUC R [pM]” value amounted to 7710 pM.

B2: SEQ ID NO: 32 (peptide)
peptide: Y[Aib]QGTFTSDLSIQK([γGlu-Palmitoyl])ESRAAQDFIEWLKAGGPSSGAPPPS-NH2
modifications: N-terminus assumed
SMILES: CCCCCCCCCCCCCCCC(=O)N[C@@H](CCC(=O)NCCCC[C@H](NC(=O)[C@H](CCC(N)=O)NC(=O)[C@@H](NC(=O)[C@H](CO)NC(=O)[C@H](CC(C)C)NC(=O)[C@H](CC(=O)O)NC(=O)[C@H](CO)NC(=O)[C@@H](NC(=O)[C@H](Cc1ccccc1)NC(=O)[C@@H](NC(=O)CNC(=O)[C@H](CCC(N)=O)NC(=O)C(C)(C)NC(=O)[C@@H](N)Cc1ccc(O)cc1)[C@@H](C)O)[C@@H](C)O)[C@@H](C)CC)C(=O)N[C@@H](CCC(=O)O)C(=O)N[C@@H](CO)C(=O)N[C@@H](CCCNC(=N)N)C(=O)N[C@@H](C)C(=O)N[C@@H](C)C(=O)N[C@@H](CCC(N)=O)C(=O)N[C@@H](CC(=O)O)C(=O)N[C@@H](Cc1ccccc1)C(=O)N[C@H](C(=O)N[C@@H](CCC(=O)O)C(=O)N[C@@H](Cc1c[nH]c2ccccc12)C(=O)N[C@@H](CC(C)C)C(=O)N[C@@H](CCCCN)C(=O)N[C@@H](C)C(=O)NCC(=O)NCC(=O)N1CCC[C@H]1C(=O)N[C@@H](CO)C(=O)N[C@@H](CO)C(=O)NCC(=O)N[C@@H](C)C(=O)N1CCC[C@H]1C(=O)N1CCC[C@H]1C(=O)N1CCC[C@H]1C(=O)N[C@@H](CO)C(N)=O)[C@@H](C)CC)C(=O)O
With B2, the “EC50 hGIP R [pM]” value with human GIP receptor [5] and with human GIP receptor [7] was 7.1 pM in each case. The “EC50 hGLP-1 R [pM]” value with human GLP-1 receptor [6] and in the experiment with human GLP-1 receptor [8] was 8.4 pM each time. For the same molecule, the “EC50 hGLUC R [pM]” value in the experiment with human glucagon receptor came out at 82.6 pM.

As usually defined, the EC50 is the concentration at which the effect is half-maximal. A higher EC50 goes with lower potency in that assay.
